The assay deals with ubiquitin (UniProt P0CG48).

Regarding “PRRSV DV PLP2_(385-578) V518S/V520A (domain or fragment)”, the Kcat/Km of Ub-AMC hydrolysis in vitro (substrate Ub-AMC, R&D Systems; 1.0 μM enzyme; 25°C) is 133 M⁻¹ s⁻¹.

“wt PRRSV DV PLP2_(385-578) (domain or fragment)” had a Kcat/Km of Ub-AMC hydrolysis in vitro (substrate Ub-AMC, R&D Systems; 25°C) of 5000 M⁻¹ s⁻¹.

For the substance “PRRSV DV PLP2_(385-578) V518S (domain or fragment)”, the Kcat/Km of Ub-AMC hydrolysis in vitro (substrate Ub-AMC, R&D Systems; 0.5 μM enzyme; 25°C) was 1100 M⁻¹ s⁻¹.

Take “PRRSV DV PLP2_(385-578) V520A (domain or fragment)”: the Kcat/Km of Ub-AMC hydrolysis in vitro (substrate Ub-AMC, R&D Systems; 1.0 μM enzyme; 25°C) was 190 M⁻¹ s⁻¹.
